Laboratory results published in patent US20100129369A1 (Eli Lilly, published 2010).

Key:
Human c-Met-Flis-Fc ECD [1] = target: T1, Human c-Met-Flis-Fc ECD (human); experiment: ELISA, coated ECD-Fc, antibody 0.000 ng/mL
T1 construct: also called human c-Met extracellular domain (ECD)-Fc-Flis fusion; Human cMet-ECD-Fc-Flis
Experimental: (§1) Wells of 96-well EIA/RIA high binding plates (Costar, #2592) are coated with 100 μL of 1 μg/mL human c-Met extracellular domain (ECD)-Fc-Flis fusion (SEQ ID NO:72), RON-ECD-Fc (R&D Systems, #1947-MS), or PlexinA2-ECD-Fc (Abnova, Taipei, Taiwan #H00005362-P01) in coating buffer (BioFX Labs, # COAT-1000-01) overnight at 4° C. […] After the plates are washed, 100 μL/well of substrate solution (BioFx, #TMBW-1000-01) are added and the plates are incubated for 10 min. at room temperature. 100 μL/well of stop solution (BioFx, # LSTP-1000-01) are added to stop the reaction. The colorimetric signals are developed and read at 450 nm using a SpectraMax 190 plate reader (Molecular Devices, Sunnyvale, Calif.). c-Met antibody binding to c-Met, RON and PlexinA2 ECDs is proportional to color signal production.

RON-ECD-Fc [2] = target: T2, RON-ECD-Fc (human, UniProt Q04912 25-957); experiment: ELISA, coated ECD-Fc, antibody 0.000 ng/mL
T2 construct: extracellular domain; Bought reagent; not shown: Fc part of the bought fusion
T2 sequence (looked up): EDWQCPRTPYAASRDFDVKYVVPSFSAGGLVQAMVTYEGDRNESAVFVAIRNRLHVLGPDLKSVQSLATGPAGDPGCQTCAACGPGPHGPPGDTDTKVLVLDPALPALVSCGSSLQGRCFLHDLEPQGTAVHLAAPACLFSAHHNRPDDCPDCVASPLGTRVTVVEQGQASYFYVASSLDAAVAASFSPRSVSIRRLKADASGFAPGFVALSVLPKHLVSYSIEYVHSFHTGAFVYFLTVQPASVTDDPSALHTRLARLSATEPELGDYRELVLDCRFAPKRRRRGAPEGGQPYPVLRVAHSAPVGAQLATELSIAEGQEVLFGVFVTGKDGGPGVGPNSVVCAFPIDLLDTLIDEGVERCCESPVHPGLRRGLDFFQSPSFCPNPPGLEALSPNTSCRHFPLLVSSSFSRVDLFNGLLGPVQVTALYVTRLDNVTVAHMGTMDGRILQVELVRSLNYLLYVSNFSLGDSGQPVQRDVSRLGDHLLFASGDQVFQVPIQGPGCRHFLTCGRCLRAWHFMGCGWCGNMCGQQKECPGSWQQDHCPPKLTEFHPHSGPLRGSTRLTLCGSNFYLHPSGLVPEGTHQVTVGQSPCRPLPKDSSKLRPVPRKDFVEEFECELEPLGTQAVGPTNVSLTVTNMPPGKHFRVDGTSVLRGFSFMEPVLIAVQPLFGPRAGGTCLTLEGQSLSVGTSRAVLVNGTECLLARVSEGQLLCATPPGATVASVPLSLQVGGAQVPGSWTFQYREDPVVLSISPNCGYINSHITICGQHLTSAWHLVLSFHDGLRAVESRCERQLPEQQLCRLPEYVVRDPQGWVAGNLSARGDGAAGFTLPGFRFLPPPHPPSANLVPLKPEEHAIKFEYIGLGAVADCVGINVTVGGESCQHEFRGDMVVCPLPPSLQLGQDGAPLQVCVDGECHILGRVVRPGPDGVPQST
Experimental: as §1

PlexinA2-ECD-Fc [3] = target: T3, PlexinA2-ECD-Fc (human, UniProt O75051 35-1237); experiment: ELISA, coated ECD-Fc, antibody 0.000 ng/mL
T3 construct: extracellular domain; Bought reagent
T3 sequence (looked up): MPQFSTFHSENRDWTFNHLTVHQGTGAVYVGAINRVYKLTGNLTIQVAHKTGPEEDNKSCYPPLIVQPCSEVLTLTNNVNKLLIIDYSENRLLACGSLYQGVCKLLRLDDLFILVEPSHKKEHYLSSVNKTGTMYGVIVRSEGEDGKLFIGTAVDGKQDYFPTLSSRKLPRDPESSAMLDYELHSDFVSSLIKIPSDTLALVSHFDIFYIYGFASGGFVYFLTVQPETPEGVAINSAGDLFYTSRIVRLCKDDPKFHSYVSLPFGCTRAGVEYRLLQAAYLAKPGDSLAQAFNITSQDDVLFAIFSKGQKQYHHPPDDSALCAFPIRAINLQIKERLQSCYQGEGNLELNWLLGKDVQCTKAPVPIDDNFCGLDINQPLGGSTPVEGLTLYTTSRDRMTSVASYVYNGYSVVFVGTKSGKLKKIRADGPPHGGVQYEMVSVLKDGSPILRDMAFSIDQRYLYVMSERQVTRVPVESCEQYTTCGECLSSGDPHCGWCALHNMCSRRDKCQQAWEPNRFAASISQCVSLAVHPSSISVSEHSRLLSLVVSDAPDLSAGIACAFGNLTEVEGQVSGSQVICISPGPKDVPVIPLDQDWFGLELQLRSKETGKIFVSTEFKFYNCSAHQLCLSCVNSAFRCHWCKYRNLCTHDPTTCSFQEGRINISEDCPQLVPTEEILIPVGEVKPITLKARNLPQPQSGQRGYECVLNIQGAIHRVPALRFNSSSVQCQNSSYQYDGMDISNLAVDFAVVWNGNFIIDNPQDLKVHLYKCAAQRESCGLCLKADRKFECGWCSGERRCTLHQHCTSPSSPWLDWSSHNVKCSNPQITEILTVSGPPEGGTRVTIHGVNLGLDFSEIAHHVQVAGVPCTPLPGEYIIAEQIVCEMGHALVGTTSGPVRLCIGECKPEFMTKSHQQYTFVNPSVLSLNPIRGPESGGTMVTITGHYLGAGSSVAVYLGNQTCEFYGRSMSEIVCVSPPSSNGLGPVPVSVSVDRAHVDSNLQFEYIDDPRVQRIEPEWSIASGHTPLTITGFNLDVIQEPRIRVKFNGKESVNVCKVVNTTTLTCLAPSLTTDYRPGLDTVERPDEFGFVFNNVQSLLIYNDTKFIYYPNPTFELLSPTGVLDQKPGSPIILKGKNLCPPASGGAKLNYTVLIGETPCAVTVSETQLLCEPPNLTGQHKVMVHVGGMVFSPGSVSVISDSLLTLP
Experimental: as §1

Human c-Met-Flis-Fc ECD [4] = target: T1, Human c-Met-Flis-Fc ECD; experiment: ELISA, coated ECD-Fc, antibody 0.010 ng/mL
Experimental: as §1

RON-ECD-Fc [5] = target: T2, RON-ECD-Fc; experiment: ELISA, coated ECD-Fc, antibody 0.010 ng/mL
Experimental: as §1

PlexinA2-ECD-Fc [6] = target: T3, PlexinA2-ECD-Fc; experiment: ELISA, coated ECD-Fc, antibody 0.010 ng/mL
Experimental: as §1

T1 sequence (chain, as listed by the source limits assumed): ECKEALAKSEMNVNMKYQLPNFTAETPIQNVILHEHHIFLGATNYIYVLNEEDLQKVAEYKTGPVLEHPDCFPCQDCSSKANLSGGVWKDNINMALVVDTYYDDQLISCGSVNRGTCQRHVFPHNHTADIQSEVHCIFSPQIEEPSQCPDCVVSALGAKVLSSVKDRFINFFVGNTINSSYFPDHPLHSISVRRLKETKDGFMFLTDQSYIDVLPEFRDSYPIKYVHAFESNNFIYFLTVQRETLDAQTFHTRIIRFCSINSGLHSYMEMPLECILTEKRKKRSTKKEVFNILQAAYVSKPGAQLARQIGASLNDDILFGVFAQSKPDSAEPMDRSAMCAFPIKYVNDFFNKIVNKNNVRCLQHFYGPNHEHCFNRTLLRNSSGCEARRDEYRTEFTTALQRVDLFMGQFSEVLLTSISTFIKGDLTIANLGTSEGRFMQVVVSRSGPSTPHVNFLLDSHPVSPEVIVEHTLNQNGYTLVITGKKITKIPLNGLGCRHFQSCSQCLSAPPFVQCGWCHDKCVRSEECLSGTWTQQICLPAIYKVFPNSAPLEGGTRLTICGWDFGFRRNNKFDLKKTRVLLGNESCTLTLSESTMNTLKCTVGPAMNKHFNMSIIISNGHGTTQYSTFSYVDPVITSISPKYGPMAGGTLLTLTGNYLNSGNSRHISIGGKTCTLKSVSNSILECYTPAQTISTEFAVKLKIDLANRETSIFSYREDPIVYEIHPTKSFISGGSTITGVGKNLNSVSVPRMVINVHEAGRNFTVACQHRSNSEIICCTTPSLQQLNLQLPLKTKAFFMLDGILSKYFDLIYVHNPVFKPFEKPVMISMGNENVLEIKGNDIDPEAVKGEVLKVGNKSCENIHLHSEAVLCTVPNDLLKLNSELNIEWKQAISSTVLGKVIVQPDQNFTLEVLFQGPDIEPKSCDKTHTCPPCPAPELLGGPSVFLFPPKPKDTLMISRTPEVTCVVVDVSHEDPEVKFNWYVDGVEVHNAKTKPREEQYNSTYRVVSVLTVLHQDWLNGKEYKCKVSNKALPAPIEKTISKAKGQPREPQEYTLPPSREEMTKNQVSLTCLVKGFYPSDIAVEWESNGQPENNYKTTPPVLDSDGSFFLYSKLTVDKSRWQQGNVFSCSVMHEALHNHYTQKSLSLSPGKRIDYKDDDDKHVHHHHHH

B1: C8-6 (antibody, human IgG2, kappa, V domains shown)
VH: QVQLVQSGAEVKKPGASVKVSCKASGYTFTDYYMHWVRQAPGQGLEWMGRVNPNRGGTTYNQKFEGRVTMTTDTSTSTAYMELRSLRSDDTAVYYCARTNWLDYWGQGTTVTVSS
VL: DIQMTQSPSSLSASVGDRVTITCSVSSSVSSIYLHWYQQKPGKAPKLLIYSTSNLASGVPSRFSGSGSGTDFTLTISSLQPEDFATYYCIQYSGYPLTFGGGTKVEIKR
notes: Called IgG4, kappa; also called Mab C8-6
Human c-Met-Flis-Fc ECD [1]
  Average A450 nm: 0.322 A450 nm
RON-ECD-Fc [2]
  Average A450 nm: 0.11 A450 nm
PlexinA2-ECD-Fc [3]
  Average A450 nm: 0.109 A450 nm
Human c-Met-Flis-Fc ECD [4]
  Average A450 nm: 0.335 A450 nm
RON-ECD-Fc [5]
  Average A450 nm: 0.097 A450 nm
PlexinA2-ECD-Fc [6]
  Average A450 nm: 0.095 A450 nm
